These results are taken from IntAct's records for PubMed 19779455.

B1: E3 SUMO-protein ligase PIAS4 (Homo sapiens), Q8N2W9 (parent)
chain: MAAELVEAKNMVMSFRVSDLQMLLGFVGRSKSGLKHELVTRALQLVQFDCSPELFKKIKELYETRYAKKNSEPAPQPHRPLDPLTMHSTYDRAGAVPRTPLAGPNIDYPVLYGKYLNGLGRLPAKTLKPEVRLVKLPFFNMLDELLKPTELVPQNNEKLQESPCIFALTPRQVELIRNSRELQPGVKAVQVVLRICYSDTSCPQEDQYPPNIAVKVNHSYCSVPGYYPSNKPGVEPKRPCRPINLTHLMYLSSATNRITVTWGNYGKSYSVALYLVRQLTSSELLQRLKTIGVKHPELCKALVKEKLRLDPDSEIATTGVRVSLICPLVKMRLSVPCRAETCAHLQCFDAVFYLQMNEKKPTWMCPVCDKPAPYDQLIIDGLLSKILSECEDADEIEYLVDGSWCPIRAEKERSCSPQGAILVLGPSDANGLLPAPSVNGSGALGSTGGGGPVGSMENGKPGADVVDLTLDSSSSSEDEEEEEEEEEDEDEEGPRPKRRCPFQKGLVPAC

This test covers variants of B1. The settings on record: with parp1_human PARP1, P09874.
parp1_human PARP1, P09874, sequence (P09874 whole entry): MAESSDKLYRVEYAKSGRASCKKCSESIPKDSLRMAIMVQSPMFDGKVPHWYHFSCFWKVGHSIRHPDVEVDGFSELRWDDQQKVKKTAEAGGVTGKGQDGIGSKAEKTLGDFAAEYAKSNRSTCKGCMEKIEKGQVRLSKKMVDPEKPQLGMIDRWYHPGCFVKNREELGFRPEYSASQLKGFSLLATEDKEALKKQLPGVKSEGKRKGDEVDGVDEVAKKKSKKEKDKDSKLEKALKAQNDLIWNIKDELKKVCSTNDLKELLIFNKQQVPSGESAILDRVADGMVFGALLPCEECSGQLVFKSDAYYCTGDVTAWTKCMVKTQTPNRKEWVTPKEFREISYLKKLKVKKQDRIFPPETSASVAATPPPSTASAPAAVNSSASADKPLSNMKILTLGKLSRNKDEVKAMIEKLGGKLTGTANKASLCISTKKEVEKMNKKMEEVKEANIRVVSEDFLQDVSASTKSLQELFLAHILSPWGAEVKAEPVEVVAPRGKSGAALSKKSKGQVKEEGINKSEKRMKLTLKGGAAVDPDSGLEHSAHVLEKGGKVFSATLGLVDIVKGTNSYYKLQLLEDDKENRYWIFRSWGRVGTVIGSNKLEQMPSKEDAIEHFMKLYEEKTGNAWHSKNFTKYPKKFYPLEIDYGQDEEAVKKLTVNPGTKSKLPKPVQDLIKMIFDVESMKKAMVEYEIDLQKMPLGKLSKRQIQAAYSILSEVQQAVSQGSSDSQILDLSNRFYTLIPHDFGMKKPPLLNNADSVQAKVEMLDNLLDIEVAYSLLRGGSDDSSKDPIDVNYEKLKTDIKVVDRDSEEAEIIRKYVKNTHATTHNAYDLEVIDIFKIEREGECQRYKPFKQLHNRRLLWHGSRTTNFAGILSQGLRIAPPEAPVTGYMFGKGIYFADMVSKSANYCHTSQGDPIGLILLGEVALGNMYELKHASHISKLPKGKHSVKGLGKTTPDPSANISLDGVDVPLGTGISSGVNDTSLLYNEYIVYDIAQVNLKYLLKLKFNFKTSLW
For MAAELVEAKNMVMSFRVSDLQMLLGFVGRSKSGLKHELVTRALQLVQFDCSPELFKKIKELYETRYAKKNSEPAPQPHRPLDPLTMHSTYDRAGAVPRTPLAGPNIDYPVLYGKYLNGLGRLPAKTLKPEVRLVKLPFFNMLDELLKPTELVPQNNEKLQESPCIFALTPRQVELIRNSRELQPGVKAVQVVLRICYSDTSCPQEDQYPPNIAVKVNHSYCSVPGYYPSNKPGVEPKRPCRPINLTHLMYLSSATNRITVTWGNYGKSYSVALYLVRQLTSSELLQRLKTIGVKHPELCKALVKEKLRLDPDSEIATTGVRVSLICPLVKMRLSVPCRAETFAHLQCFDAVFYLQMNEKKPTWMCPVCDKPAPYDQLIIDGLLSKILSECEDADEIEYLVDGSWCPIRAEKERSCSPQGAILVLGPSDANGLLPAPSVNGSGALGSTGGGGPVGSMENGKPGADVVDLTLDSSSSSEDEEEEEEEEEDEDEEGPRPKRRCPFQKGLVPAC [C342F], the “effect of a mutation on the interaction” value is given as “disrupting interaction”.
